Measured values from article PMC6602975 (2019).

Legend:
[1] = target: Unmodified nucleosome core particle (X. laevis histone octamer on 147 bp Widom-601 DNA) (X. laevis)
[2] = target: H4K16ac nucleosome (X. laevis | , acetyl-lysine at K16)

Kd [1] | Kd [2] | Binder
1100 nM |  | Wild-type Orc1 (1–214) BAH domain (domain or fragment, N-alpha-acetyl on A2 (acetylated at the α-amino group when purified from eukaryotic cells)) MAKTLKDLQGWEIITTDEQGNIIDGGQKRLRRRGAKTEHYLKRSSDGIKLGRGDSVVMHNEAAGTYSVYMIQELRLNTLNNVVELWALTYLRWFEVNPLAHYRQFNPDANILNRPLNYYNKLFSETANKNELYLTAELAELQLFNFIRVANVMDGSKWEVLKGNVDPERDFTVRYICEPTGEKFVDINIEDVKAYIKKVEPREAQEYLKDLTLP
300 nM | 1200 nM | Sir3 BAH D205Q (domain or fragment) MAKTLKDLDGWQVIITDDQGRVIDDNNRRRSRKRGGENVFLKRISDGLSFGKGESVIFNDNVTETYSVYLIHEIRLNTLNNVVEIWVFSYLRWFELKPKLYYEQFRPDLIKEDHPLEFYKDKFFNEVNKSELYLTAELSEIWLKDFIAVGQILPESQWNDSSIDKIEDRDFLVRYACEPTAEKFVPIDIFQIIRRVKEMEPKQSQEYLKRVSVP
